Laboratory results: patent US20200199241A1 (Chugai, published 2020)
Substitutions are numbered along the chain they refer to.

B1: IgG1-F787 (antibody)
heavy: QVQLQESGPGLVKPSETLSLTCAVSGHSISHDHAWSWVRQPPGEGLEWIGFISYSGITNYNPSLQGRVTISRDNSKNTLYLQMNSLRAEDTAVYYCARSLARTTAMDYWGEGTLVTVSSASTKGPSVFPLAPSSKSTSGGTAALGCLVKDYFPEPVTVSWNSGALTSGVHTFPAVLQSSGLYSLSSVVTVPSSSLGTQTYICNVNHKPSNTKVDKKVEPKSCDKTHTCPPCPAPELLGGPSVFLFPPKPKDTLYITRTPEVTCVVVDVSHEDPEVKFNWYVDGVEVHNAKTKPREEQYNSTYRVVSVLQVEHADWLNGKEYKCKVSNKALPAPIEKTISKAKGQPREPQVYTLPPSRDELTKNQVSLTCLVKGFYPSDIAVEWESNGQPENNYKTTPPVLDSDGSFFLYSKLTVDKSRWQQGNVFSCSVMHEALHYHYTQKSLSLSP
light: not shown
notes: EU numbering; copies: 2 + 2
B2: IgG1-F810 (antibody)
heavy: B1 heavy with T256S, Q309T, E311L, A313Q, A380V
light: not shown
notes: EU numbering; copies: 2 + 2
B3: IgG1-F820 (antibody)
heavy: B1 heavy with L237K, S241K, T256S, Q309T, E311L, A313Q
light: not shown
notes: EU numbering; copies: 2 + 2
B4: IgG1-F816 (antibody)
heavy: B1 heavy with P240D, T252V, T256S, Q309P, E311L, A313Q
light: not shown
notes: EU numbering; copies: 2 + 2
B5: IgG1-F850 (antibody)
heavy: B1 heavy with T256S, D282E, Q309T, E311L, A313Q
light: not shown
notes: EU numbering; copies: 2 + 2
B6: IgG1-F838 (antibody)
heavy: B1 heavy with P240D, T252V, T256S, R257K, Q309T, E311L, A313Q
light: not shown
notes: EU numbering; copies: 2 + 2
B7: IgG1-F811 (antibody)
heavy: B1 heavy with T256S, Q309T, E311L, A313Q, E382S
light: not shown
notes: EU numbering; copies: 2 + 2
B8: IgG1-F804 (antibody)
heavy: B1 heavy with T256S, Q309T, E311L, A313Q, N317Y
light: not shown
notes: EU numbering; copies: 2 + 2
B9: IgG1-F832 (antibody)
heavy: B1 heavy with P240D, T252V, T256S, R257D, Q309T, E311L, A313Q
light: not shown
notes: EU numbering; copies: 2 + 2
B10: IgG1-F806 (antibody)
heavy: B1 heavy with T256S, Q309T, E311L, A313Q, N386A
light: not shown
notes: EU numbering; copies: 2 + 2
B11: IgG1-F808 (antibody)
heavy: B1 heavy with T256S, Q309T, E311L, A313Q, N391A, N392A
light: not shown
notes: EU numbering; copies: 2 + 2
B12: IgG1-F848 (antibody)
heavy: B1 heavy with P240D, T252V, T256S, R257Y, Q309T, E311L, A313Q
light: not shown
notes: EU numbering; copies: 2 + 2
B13: IgG1-F799 (antibody)
heavy: B1 heavy with T256S, Q309T, E311L, A313Q, N317R
light: not shown
notes: EU numbering; copies: 2 + 2
B14: IgG1-F800 (antibody)
heavy: B1 heavy with T256S, Q309T, E311L, A313Q, N317S
light: not shown
notes: EU numbering; copies: 2 + 2
B15: IgG1-F847 (antibody)
heavy: B1 heavy with P240D, T252V, T256S, R257W, Q309T, E311L, A313Q
light: not shown
notes: EU numbering; copies: 2 + 2
B16: IgG1-F855 (antibody)
heavy: B1 heavy with T256S, D282K, Q309T, E311L, A313Q
light: not shown
notes: EU numbering; copies: 2 + 2
B17: IgG1-F828 (antibody)
heavy: B1 heavy with P240D, T252V, I255V, T256S, Q309T, E311L, A313Q
light: not shown
notes: EU numbering; copies: 2 + 2
B18: IgG1-F793 (antibody)
heavy: B1 heavy with T256S, Q309T, E311L, A313Q, N317I
light: not shown
notes: EU numbering; copies: 2 + 2
B19: IgG1-F796 (antibody)
heavy: B1 heavy with T256S, Q309T, E311L, A313Q, N317M
light: not shown
notes: EU numbering; copies: 2 + 2
B20: IgG1-F805 (antibody)
heavy: B1 heavy with T256S, Q309T, E311L, A313Q, N327A
light: not shown
notes: EU numbering; copies: 2 + 2
B21: IgG1-F814 (antibody)
heavy: B1 heavy with T256S, Q309T, E311L, A313Q, Y438I
light: not shown
notes: EU numbering; copies: 2 + 2
B22: IgG1-F794 (antibody)
heavy: B1 heavy with T256S, Q309T, E311L, A313Q, N317K
light: not shown
notes: EU numbering; copies: 2 + 2
B23: IgG1-F868 (antibody)
heavy: B1 heavy with G238A, S241D, T256S, N288E, E311L
light: not shown
notes: EU numbering; copies: 2 + 2
B24: IgG1-F841 (antibody)
heavy: B1 heavy with P240D, T252V, T256S, R257N, Q309T, E311L, A313Q
light: not shown
notes: EU numbering; copies: 2 + 2
B25: IgG1-F807 (antibody)
heavy: B1 heavy with T256S, Q309T, E311L, A313Q, N391A
light: not shown
notes: EU numbering; copies: 2 + 2
B26: IgG1-F821 (antibody)
heavy: B1 heavy with L237R, S241K, T256S, Q309T, E311L, A313Q
light: not shown
notes: copies: 2 + 2
B27: IgG1-F823 (antibody)
heavy: B1 heavy with P240D, T252Y, T256S, Q309T, E311L, A313Q, W315F
light: not shown
notes: EU numbering; copies: 2 + 2
B28: IgG1-F836 (antibody)
heavy: B1 heavy with P240D, T252V, T256S, R257H, Q309T, E311L, A313Q
light: not shown
notes: EU numbering; copies: 2 + 2
B29: IgG1-F817 (antibody)
heavy: B1 heavy with P240D, T252V, T256S, E311L
light: not shown
notes: EU numbering; copies: 2 + 2
B30: IgG1-F858 (antibody)
heavy: B1 heavy with T256S, D282N, Q309T, E311L, A313Q
light: not shown
notes: EU numbering; copies: 2 + 2
B31: IgG1-F861 (antibody)
heavy: B1 heavy with T256S, D282R, Q309T, E311L, A313Q
light: not shown
notes: EU numbering; copies: 2 + 2
B32: IgG1-F792 (antibody)
heavy: B1 heavy with T256S, Q309T, E311L, A313Q, N317G
light: not shown
notes: EU numbering; copies: 2 + 2
B33: IgG1-F867 (antibody)
heavy: B1 heavy with T256S, Q309T, E311L, A313Q, N386A, N391A
light: not shown
notes: EU numbering; copies: 2 + 2
B34: IgG1-F860 (antibody)
heavy: B1 heavy with T256S, D282Q, Q309T, E311L, A313Q
light: not shown
notes: EU numbering; copies: 2 + 2
B35: IgG1-F843 (antibody)
heavy: B1 heavy with P240D, T252V, T256S, R257Q, Q309T, E311L, A313Q
light: not shown
notes: EU numbering; copies: 2 + 2
B36: IgG1-F795 (antibody)
heavy: B1 heavy with T256S, Q309T, E311L, A313Q, N317L
light: not shown
notes: EU numbering; copies: 2 + 2
B37: IgG1-F844 (antibody)
heavy: B1 heavy with P240D, T252V, T256S, R257S, Q309T, E311L, A313Q
light: not shown
notes: EU numbering; copies: 2 + 2
B38: IgG1-F801 (antibody)
heavy: B1 heavy with T256S, Q309T, E311L, A313Q, N317T
light: not shown
notes: EU numbering; copies: 2 + 2
B39: IgG1-F812 (antibody)
heavy: B1 heavy with T256S, Q309T, E311L, A313Q, E384V
light: not shown
notes: EU numbering; copies: 2 + 2
B40: IgG1-F803 (antibody)
heavy: B1 heavy with T256S, Q309T, E311L, A313Q, N317W
light: not shown
notes: EU numbering; copies: 2 + 2
B41: IgG1-F813 (antibody)
heavy: B1 heavy with T256S, Q309T, E311L, A313Q, S426E
light: not shown
notes: EU numbering; copies: 2 + 2
B42: IgG1-F833 (antibody)
heavy: B1 heavy with P240D, T252V, T256S, R257E, Q309T, E311L, A313Q
light: not shown
notes: EU numbering; copies: 2 + 2
B43: IgG1-F849 (antibody)
heavy: B1 heavy with T256S, D282A, Q309T, E311L, A313Q
light: not shown
notes: EU numbering; copies: 2 + 2
B44: IgG1-F815 (antibody)
heavy: B1 heavy with T256S, Q309T, E311L, A313Q, T439R
light: not shown
notes: EU numbering; copies: 2 + 2
B45: IgG1-F831 (antibody)
heavy: B1 heavy with P240D, T252V, T256S, R257A, Q309T, E311L, A313Q
light: not shown
notes: EU numbering; copies: 2 + 2
B46: IgG1-F822 (antibody)
heavy: B1 heavy with P240D, T252Y, T256S, Q309T, E311L, A313Q, W315Y
light: not shown
notes: EU numbering; copies: 2 + 2
B47: IgG1-F862 (antibody)
heavy: B1 heavy with T256S, D282S, Q309T, E311L, A313Q
light: not shown
notes: EU numbering; copies: 2 + 2
B48: IgG1-F798 (antibody)
heavy: B1 heavy with T256S, Q309T, E311L, A313Q, N317Q
light: not shown
notes: EU numbering; copies: 2 + 2
B49: IgG1-F809 (antibody)
heavy: B1 heavy with T258S, Q309T, E311L, A313Q
light: not shown
notes: EU numbering; copies: 2 + 2
B50: IgG1-F788 (antibody)
heavy: B1 heavy with T256S, Q309T, E311L, A313Q, N317A
light: not shown
notes: EU numbering; copies: 2 + 2
B51: IgG1-F819 (antibody)
heavy: B1 heavy with P240D, T256S, N288E, Q309T, E311L, A313Q
light: not shown
notes: EU numbering; copies: 2 + 2
B52: IgG1-F837 (antibody)
heavy: B1 heavy with P240D, T252V, T256S, R257I, Q309T, E311L, A313Q
light: not shown
notes: EU numbering; copies: 2 + 2
B53: IgG1-F839 (antibody)
heavy: B1 heavy with P240D, T252V, T256S, R257L, Q309T, E311L, A313Q
light: not shown
notes: EU numbering; copies: 2 + 2
B54: IgG1-F840 (antibody)
heavy: B1 heavy with P240D, T252V, T256S, R257M, Q309T, E311L, A313Q
light: not shown
notes: EU numbering; copies: 2 + 2
B55: IgG1-F863 (antibody)
heavy: B1 heavy with T256S, D282T, Q309T, E311L, A313Q
light: not shown
notes: EU numbering; copies: 2 + 2
B56: IgG1-F789 (antibody)
heavy: B1 heavy with T256S, Q309T, E311L, A313Q, N317D
light: not shown
notes: EU numbering; copies: 2 + 2
B57: IgG1-F790 (antibody)
heavy: B1 heavy with T256S, Q309T, E311L, A313Q, N317E
light: not shown
notes: EU numbering; copies: 2 + 2
B58: IgG1-F853 (antibody)
heavy: B1 heavy with T256S, D282H, Q309T, E311L, A313Q
light: not shown
notes: EU numbering; copies: 2 + 2
B59: IgG1-F852 (antibody)
heavy: B1 heavy with T256S, D282G, Q309T, E311L, A313Q
light: not shown
notes: EU numbering; copies: 2 + 2
B60: IgG1-F834 (antibody)
heavy: B1 heavy with P240D, T252V, T256S, R257F, Q309T, E311L, A313Q
light: not shown
notes: EU numbering; copies: 2 + 2

Molecular target: T1, soluble human FcRn complexed with β2-microglobulin (human, UniProt P61769 21-119, limits assumed)
T1 construct: also called hFcRn
T1 sequence (chain, as listed by the source limits assumed, chain 1 of 2): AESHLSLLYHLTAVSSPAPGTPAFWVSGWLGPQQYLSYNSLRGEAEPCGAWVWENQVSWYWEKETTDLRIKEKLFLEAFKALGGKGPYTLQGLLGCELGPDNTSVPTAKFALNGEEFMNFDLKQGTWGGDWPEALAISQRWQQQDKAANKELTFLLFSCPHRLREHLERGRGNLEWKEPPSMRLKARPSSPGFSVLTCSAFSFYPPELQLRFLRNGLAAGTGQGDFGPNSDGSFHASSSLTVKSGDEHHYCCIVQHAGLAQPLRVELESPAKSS
T1 sequence (P61769 21-119 limits assumed, chain 2 of 2): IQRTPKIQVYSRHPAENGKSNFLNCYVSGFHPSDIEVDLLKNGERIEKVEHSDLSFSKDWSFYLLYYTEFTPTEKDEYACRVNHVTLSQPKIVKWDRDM
Assay: Biacore SPR, pH 7.0;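 note: test antibodies captured on a Protein L chip with human FcRn flowed over as analyte, KD obtained as the ratio of dissociation to association rate constants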

Binder | Kd
B1 | 88 nM
B2 | 220 nM
B3 | 340 nM
B4 | 360 nM
B5 | 290 nM
B6 | 430 nM
B7 | 490 nM
B8 | 400 nM
B9 | 2600 nM
B10 | 310 nM
B11 | 320 nM
B12 | 830 nM
B13 | 410 nM
B14 | 380 nM
B15 | 340 nM
B16 | 320 nM
B17 | 2500 nM
B18 | 330 nM
B19 | 340 nM
B20 | 300 nM

Binder | Kd
B21 | 120 nM
B22 | 410 nM
B23 | 20 nM
B24 | 1100 nM
B25 | 320 nM
B26 | 310 nM
B27 | 1100 nM
B28 | 500 nM
B29 | 98 nM
B30 | 320 nM
B31 | 320 nM
B32 | 440 nM
B33 | 280 nM
B34 | 330 nM
B35 | 660 nM
B36 | 310 nM
B37 | 1300 nM
B38 | 440 nM
B39 | 270 nM
B40 | 360 nM

Binder | Kd
B41 | 280 nM
B42 | 800 nM
B43 | 330 nM
B44 | 550 nM
B45 | 1600 nM
B46 | 1100 nM
B47 | 300 nM
B48 | 350 nM
B49 | 220 nM
B50 | 410 nM
B51 | 140 nM
B52 | 560 nM
B53 | 340 nM
B54 | 420 nM
B55 | 270 nM
B56 | 150 nM
B57 | 270 nM
B58 | 320 nM
B59 | 330 nM
B60 | 810 nM
